{"source": "paper PMC3589550", "about": "(Nature structural & molecular biology, 2011)", "molecules": {"B1": {"name": "vIRF4^153–256: central region fragment of vIRF4, residues 153–256 (protein)", "chain": "SDTREQSYEEAGAAAPAPPKAPSGLRGRPRKSNRYYNVGDITTEQKAACSVWIPVNEGASTSGMGSSGTRQVTQASSFTWRVPGDPPAPSTLTGPSDPHSSGAG"}, "B2": {"name": "vIRF4^153–256/Δ202–216/Δ237–256: vIRF4^153–256 with residues 202–216 and 237–256 deleted (protein)", "chain": "SDTREQSYEEAGAAAPAPPKAPSGLRGRPRKSNRYYNVGDITTEQKAACGSSGTRQVTQASSFTWRVPG"}, "B3": {"name": "vIRF4^153–256/Δ202–216: vIRF4^153–256 with residues 202–216 deleted (protein)", "chain": "SDTREQSYEEAGAAAPAPPKAPSGLRGRPRKSNRYYNVGDITTEQKAACGSSGTRQVTQASSFTWRVPGDPPAPSTLTGPSDPHSSGAG"}, "B4": {"name": "vIRF4: KSHV viral interferon regulatory factor 4 (protein)", "chain": "MPKAGGSEWATLWIIDALENNKFPYFSWFDRNNLLFAAPAPLPAGSDIPPGWYSVYHAFDEECDRVYGPSPVVGQTVYGRFGRLLRGTRRAVVRNDLRYSDTFGGSYVVWQLVRTPFKNCTYCYGAAYGPEKLQRFIQCLLSPPMQTTATRRSDTREQSYEEAGAAAPAPPKAPSGLRGRPRKSNRYYNVGDITTEQKAACSVWIPVNEGASTSGMGSSGTRQVTQASSFTWRVPGDPPAPSTLTGPSDPHSSGAGLPGTAPPKPQHETRLAGTVSGVSGVAQTPGDTGQLAPPMRDGSRLPSTSPWIPACFPWGDLPVTGWWPQGASGLPEKVHPPTTGQFDPLSPRWTYTGIPSSQLNPAAPSWIPPHAQAGTFVGEFSQGAPLAPQGLLPQSGQCASAWLPRRETGAEGACGASTEGRAPQGAASERVYPFEPQPPSAPAPGYAKPSCYNWSPLAEPPATRPIRAPVWHPPVGHAVVPEVRTPLWIPWSSGGAPNQGLSHTQGGASATPSAGAPPTPEVAERQEPSSSGIPYVCQGDNMATGYRRVTTSSGALEVEIIDLTGDSDTPSTTVASTPLPVSGPRVFQPTVLYSAPEPAVNPEVSHLPTELERRECVCPGSGERPRVPLVSTYAGDRYAVGGYGPEQSLVPPPLGLPLTLSNLQGEDICTWEEGLGNILSELQEEPSSSTRQATDRRRPRSRSPHGRRTPVSHSGPEKPPSKMFFDPPDSQRVSFVVEIFVYGNLRGTLRREGDAGEAMLCSWPVGDTLGHLCQSFVPELLRIPRLTVPSPEQMEILNRVFEGLGHGFPIFCSMSGIYSRNATQVEGWWFGNPNSRYERILRSFSPRVPQQLFNTARYLATTAAIPQTPLSVNPVTCGTVFFGASPASTENFQNVPLTVKIFIGSIWDSLH", "modifications": "left off: V5, end not stated, kept"}}, "key": {"HAUSP [1]": {"target": "T1, HAUSP (Homo sapiens, UniProt Q93009)", "T1 sequence (Q93009 whole entry)": "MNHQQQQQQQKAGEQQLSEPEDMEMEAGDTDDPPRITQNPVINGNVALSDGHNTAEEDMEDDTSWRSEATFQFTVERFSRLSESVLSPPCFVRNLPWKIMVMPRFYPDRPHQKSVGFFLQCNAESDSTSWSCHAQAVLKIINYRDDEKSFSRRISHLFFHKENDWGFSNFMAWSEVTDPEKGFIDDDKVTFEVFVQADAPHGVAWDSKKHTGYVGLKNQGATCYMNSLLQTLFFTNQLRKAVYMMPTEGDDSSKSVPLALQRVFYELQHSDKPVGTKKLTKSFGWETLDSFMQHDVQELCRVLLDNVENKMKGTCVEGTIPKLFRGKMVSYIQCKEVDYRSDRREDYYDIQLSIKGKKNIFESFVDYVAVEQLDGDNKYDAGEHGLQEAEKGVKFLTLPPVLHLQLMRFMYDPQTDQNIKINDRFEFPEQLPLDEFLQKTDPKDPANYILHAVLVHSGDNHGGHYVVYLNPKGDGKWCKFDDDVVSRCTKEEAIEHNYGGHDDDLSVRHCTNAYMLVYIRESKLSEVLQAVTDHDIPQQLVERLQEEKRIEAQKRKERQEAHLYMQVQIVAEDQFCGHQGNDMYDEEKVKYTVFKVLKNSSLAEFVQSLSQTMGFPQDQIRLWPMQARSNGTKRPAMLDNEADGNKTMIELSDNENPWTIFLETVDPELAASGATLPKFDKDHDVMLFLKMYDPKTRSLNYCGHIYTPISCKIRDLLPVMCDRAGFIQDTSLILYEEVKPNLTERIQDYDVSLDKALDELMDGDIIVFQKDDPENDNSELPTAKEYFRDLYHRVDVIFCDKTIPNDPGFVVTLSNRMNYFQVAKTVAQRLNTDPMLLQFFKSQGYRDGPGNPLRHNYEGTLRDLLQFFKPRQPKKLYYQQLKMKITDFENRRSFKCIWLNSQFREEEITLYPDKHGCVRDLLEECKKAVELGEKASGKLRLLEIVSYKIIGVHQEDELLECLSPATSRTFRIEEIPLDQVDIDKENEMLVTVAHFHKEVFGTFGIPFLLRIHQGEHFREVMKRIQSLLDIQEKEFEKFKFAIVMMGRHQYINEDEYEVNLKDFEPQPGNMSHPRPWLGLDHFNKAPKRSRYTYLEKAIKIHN", "assay": "Co-IP / GST pull-down of HAUSP", "type": "binding", "details": "transfected 293T cells"}, "[2]": {"target": "HAUSP TRAF domain (HAUSP^62–205) (Homo sapiens, UniProt Q93009)", "sequence (Q93009 62-205)": "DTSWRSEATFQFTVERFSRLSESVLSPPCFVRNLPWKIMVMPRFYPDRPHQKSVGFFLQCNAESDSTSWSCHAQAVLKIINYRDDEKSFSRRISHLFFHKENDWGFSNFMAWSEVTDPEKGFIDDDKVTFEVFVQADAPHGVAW", "type": "binding", "details": "ITC"}, "HAUSP [3]": {"target": "T1, HAUSP", "assay": "In vitro deubiquitination", "type": "biochemical", "details": "immunopurified Flag-HAUSP complexes, K48-linked 3–7 polyubiquitin chains"}, "p53": {"system": "p53", "assay": "p53 ubiquitination on vIRF4 expression", "type": "cell-based"}}, "note": "Entries after “also recorded” stand apart in the source; their conditions may differ."}
{"molecule": "B1", "values": [{"measurement": "interaction with HAUSP", "setting": "HAUSP [1]", "result": "specifically interacts with; also recorded: sufficient to bind to HAUSP"}, {"measurement": "fold higher TRAF affinity (C-terminally extended)", "setting": "[2]; compared with vIRF4^153–216 / vIRF4^202–216", "result": 7, "unit": "fold"}]}
{"molecule": "B2", "values": [{"measurement": "TRAF binding affinity, in words", "setting": "[2]", "result": "had no further effect"}]}
{"molecule": "B3", "values": [{"measurement": "TRAF binding affinity, in words", "setting": "[2]", "result": "significant reduction of TRAF binding affinity"}]}
{"molecule": "B4", "values": [{"measurement": "HAUSP DUB activity", "setting": "HAUSP [3]", "result": "effectively suppressed HAUSP DUB activity in a binding-dependent manner"}, {"measurement": "p53 ubiquitination", "setting": "p53", "result": "markedly induced p53 ubiquitination"}]}
